# In patent US20150210994A1 (CHILDREN S HOSPITAL OF PHILADELPHIA, published 2015):
# Substitutions are numbered along the chain they refer to.
# T1: murine protein C (mPC) (mouse, UniProt P33587 42-460)
# T1 construct: also called mouse PC; mouse protein C
# T1 sequence (looked up): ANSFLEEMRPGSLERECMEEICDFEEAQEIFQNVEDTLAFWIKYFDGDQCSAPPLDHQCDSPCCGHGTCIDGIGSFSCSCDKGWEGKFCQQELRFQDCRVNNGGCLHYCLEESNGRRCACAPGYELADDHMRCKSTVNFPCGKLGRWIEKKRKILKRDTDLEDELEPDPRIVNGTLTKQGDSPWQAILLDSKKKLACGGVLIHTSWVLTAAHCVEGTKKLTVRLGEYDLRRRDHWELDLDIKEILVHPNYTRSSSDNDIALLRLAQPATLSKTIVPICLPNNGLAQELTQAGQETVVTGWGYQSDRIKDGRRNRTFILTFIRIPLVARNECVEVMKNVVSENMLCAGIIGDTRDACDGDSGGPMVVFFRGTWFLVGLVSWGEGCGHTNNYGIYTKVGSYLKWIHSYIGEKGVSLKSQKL
# T2: mouse FVIIa (mFVIIa) (mouse, UniProt P70375 42-446)
# T2 construct: mature; Recombinant; Has a Gla domain; also called mF7a
# T2 sequence (looked up): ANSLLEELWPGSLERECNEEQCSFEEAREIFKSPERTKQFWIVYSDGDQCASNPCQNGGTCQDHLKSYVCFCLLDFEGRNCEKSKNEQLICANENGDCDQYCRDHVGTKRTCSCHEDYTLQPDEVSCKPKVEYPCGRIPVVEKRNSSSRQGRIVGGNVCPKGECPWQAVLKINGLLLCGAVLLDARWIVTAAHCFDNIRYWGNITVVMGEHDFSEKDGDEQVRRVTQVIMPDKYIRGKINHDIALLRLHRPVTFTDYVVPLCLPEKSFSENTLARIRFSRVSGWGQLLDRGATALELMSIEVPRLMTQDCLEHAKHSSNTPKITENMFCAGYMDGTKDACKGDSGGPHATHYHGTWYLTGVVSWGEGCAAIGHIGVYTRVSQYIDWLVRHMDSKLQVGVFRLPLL
# T3: mPC F4L (mouse, UniProt P33587 42-460)
# T3 construct: Tested as HEK-293 supernatant after transient expression; Position 4 is counted on the mature polypeptide; also called mouse PC Phe4 to Leu
# T3 sequence (looked up): T1 sequence (looked up) with F4L
# T4: Human FVIIa (NovoSeven) (human, UniProt P08709 61-466)
# T4 construct: mature
# T4 sequence (looked up): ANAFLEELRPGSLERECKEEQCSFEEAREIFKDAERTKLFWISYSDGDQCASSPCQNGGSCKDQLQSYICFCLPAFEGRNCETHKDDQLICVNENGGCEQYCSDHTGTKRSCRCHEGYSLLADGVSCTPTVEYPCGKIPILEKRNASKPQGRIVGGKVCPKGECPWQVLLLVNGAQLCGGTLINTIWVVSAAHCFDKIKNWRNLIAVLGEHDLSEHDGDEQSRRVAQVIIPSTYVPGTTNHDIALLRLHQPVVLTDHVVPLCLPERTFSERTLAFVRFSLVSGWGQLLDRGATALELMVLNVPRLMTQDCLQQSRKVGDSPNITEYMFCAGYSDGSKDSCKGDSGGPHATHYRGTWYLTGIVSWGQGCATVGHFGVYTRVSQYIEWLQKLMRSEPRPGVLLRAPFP
# T5: wildtype human FVIIa (Leu at position 8), PACE/furin construct (human, UniProt P08709 61-466)
# T5 construct: mature; Tested as conditioned medium from transiently transfected HEK-293 cells
# T5 sequence (looked up): T4 sequence (looked up)
# B1: mouse endothelial protein C receptor (mEPCR), full-length, on CHO-K1 cells (receptor, UniProt Q64695 18-242, looked up)
# chain: LCNSDGSQSLHMLQISYFQDNHHVRHQGNASLGKLLTHTLEGPSQNVTILQLQPWQDPESWERTESGLQIYLTQFESLVKLVYRERKENVFFPLTVSCSLGCELPEEEEEGSEPHVFFDVAVNGSAFVSFRPKTAVWVSGSQEPSKAANFTLKQLNAYNRTRYELQEFLQDTCVEFLENHITTQNMKGSQTGRSYTSLVLGILMGCFIIAGVAVGIFMCTSGRRC
# notes: whole, on cells; also called murine EPCR; mouse EPCR
# B2: human EPCR on CHO-K1 cells (receptor, UniProt Q9UNN8 18-238, looked up)
# chain: SQDASDGLQRLHMLQISYFRDPYHVWYQGNASLGGHLTHVLEGPDTNTTIIQLQPLQEPESWARTQSGLQSYLLQFHGLVRLVHQERTLAFPLTIRCFLGCELPPEGSRAHVFFEVAVNGSSFVSFRPERALWQADTQVTSGVVTFTLQQLNAYNRTRYELREFLEDTCVQYVQKHISAENTKGSQTSRSYTSLVLGVLVGSFIIAGVAVGIFLCTGGRRC
# notes: whole, on cells; also called hEPCR
# Tests used:
# [1] = molecular target: soluble mouse EPCR (mouse) (UniProt Q64695); assay: isothermal titration calorimetry, soluble murine EPCR
# [2] = molecular target: mouse endothelial protein C receptor (mEPCR), full-length, on CHO-K1 cells (mouse) (UniProt Q64695); assay: saturation binding on CHO-K1 cells with mEPCR, 10 to 1000 nM ligand; bound material eluted and quantified by western blot; binding to CHO-K1 cells without mEPCR subtracted; fit of bound against ligand concentration
# murine protein C (mPC) = molecular target: T1, murine protein C (mPC); assay: HEK-293 supernatant on CHO-K1 cells with or without mouse EPCR, western blot of the bound fraction
# Description: (§1) The protein whose mEPCR binding is under investigation is added onto CHO-K1 cells expressing mEPCR (mEPCR+ve) or not (mEPCR−ve). Binding is done in the presence of physiological concentration of calcium and magnesium (1.6 mM and 0.6 mM, respectively). Following washing, the bound material is eluted with EDTA (10 mM). The bound, unbound and a portion of total loaded material are then subjected to polyacrylamide gel electrophoresis, transferred to nitrocellulose and detected by western blotting using protein-specific antibodies. FIG. 2B: Human plasma-derived protein C (hPC) or murine PC (mPC) that are known ligands for murine EPCR, were incubated with CHO-KI cells with or without murine EPCR expression. […] A variant mFVIIa bearing part of the mPC Gla domain ([1-11 mPC)-mFVIIa) restored binding of this chimeric molecule to murine EPCR.
# (§2) FIG. 4A: The Gla domain of the (1-11 mPC)-mFVIIa is shown. The blue box represents the first 11 amino acids of the mouse PC (mPC) Gla domain, whereas the red box represents the portion of the Gla domain of mouse FVIIa. […] Individual mutations were performed to change one amino acid in mFVIIa with the corresponding in (1-11 mPC)-mFVIIa. Following transient expression in HEK-293 cells, supernatant with each protein was incubated with CHO-K1 cells with or without expression of the mouse EPCR receptor. […] From top to bottom, sequences are SEQ ID NOs: 1-5. […]
# mouse FVIIa (mFVIIa) = molecular target: T2, mouse FVIIa (mFVIIa); assay: saturation binding on CHO-K1 cells with mEPCR, 10 to 1000 nM ligand; bound material eluted and quantified by western blot; binding to CHO-K1 cells without mEPCR subtracted; fit of bound against ligand concentration
# Description: as §1, with “FIG. 2A: Scheme for determining and quantifying binding of proteins to surface exposed mouse EPCR (mEPCR). The protein” for “The protein”
# FIG. 7. Increasing concentration of ligand (mFVIIa or [1-11 mPC]-mFVIIa) was incubated with CHO-K1 cells without mEPCR (−mEPCR) or with mEPCR (+mEPCR). The experimental strategy described in Example I was followed and bound material was visualized. Following subtraction of non-specific binding (material incubated on CHO-K1[-]mEPCR cells), corrected amount of bound material (nM per 10⁶ cells) was plotted vs. concentration of ligand (nM). […]
# [3] = molecular target: human plasma-derived protein C (hPC) (human, UniProt P04070 43-461); assay: CHO-K1 cells with or without murine EPCR, EDTA elution, western blot
# human plasma-derived protein C (hPC), sequence (P04070 43-461): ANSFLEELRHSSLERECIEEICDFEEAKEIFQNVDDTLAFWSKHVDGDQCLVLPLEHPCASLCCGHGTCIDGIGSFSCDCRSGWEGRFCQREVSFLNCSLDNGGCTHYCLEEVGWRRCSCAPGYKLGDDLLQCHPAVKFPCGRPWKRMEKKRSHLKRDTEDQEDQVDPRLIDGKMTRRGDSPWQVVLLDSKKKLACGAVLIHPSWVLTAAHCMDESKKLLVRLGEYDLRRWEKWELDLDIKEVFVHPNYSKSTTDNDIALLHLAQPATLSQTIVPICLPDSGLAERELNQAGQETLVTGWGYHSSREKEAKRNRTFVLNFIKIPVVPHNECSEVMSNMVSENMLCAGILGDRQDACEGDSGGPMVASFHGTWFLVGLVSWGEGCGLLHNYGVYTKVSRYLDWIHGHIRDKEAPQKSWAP
# Description: as §1, with “FIG. 2A: Scheme for determining and quantifying binding of proteins to surface exposed mouse EPCR (mEPCR). The protein” for “The protein”
# mPC F4L = molecular target: T3, mPC F4L; assay: HEK-293 supernatant on CHO-K1 cells with or without mEPCR, western blot
# Description: as §1, §2
# Human FVIIa (NovoSeven) = molecular target: T4, Human FVIIa (NovoSeven); assay: CHO-K1 cells expressing human EPCR, western blot of bound fraction
# Description: as §1, with “FIG. 2A: Scheme for determining and quantifying binding of proteins to surface exposed mouse EPCR (mEPCR). The protein” for “The protein”
# (§3) FIG. 12. Binding of variants of human activated FVII with amino acid changes at position 8 (normally a Leucine). Conditioned medium from transient transfection was added on CHO-K1 cells expressing human EPCR, as described in FIG. 2. […] Following the wash of unbound material, the bound fraction was visualized by western blotting (shown in the bottom image). […] Human FVIIa (NovoSeven) is shown as a control for positive binding. […]
# [4] = molecular target: T5, wildtype human FVIIa (Leu at position …); assay: conditioned medium on CHO-K1 cells expressing human EPCR, western blot of bound fraction
# Description: as §1, with “FIG. 2A: Scheme for determining and quantifying binding of proteins to surface exposed mouse EPCR (mEPCR). The protein” for “The protein”
# as §3
molecule,measurement,setting,value
(1-11 mPC)-mFVIIa (from UniProt P70375 42-446) (enzyme),Kd,[1],480 nM
same,Kd,[2],340 nM
B1,binding result,murine protein C (mPC),binds
same,Kd,mouse FVIIa (mFVIIa),10600 nM
same,binding result,[3],binds
same,binding result,mPC F4L,no binding
B2,binding result,Human FVIIa (NovoSeven),binds
same,binding result,[4],binds
